As a reminder, the stoichiometry N is the number of molecules, sites or subunits per partner or assembly.

This experiment concerns the target Tom20 (Chaetomium thermophilum) (Chaetomium thermophilum). Nature of the experiment: cryo-EM structure; TOM complex purified by Tom22-FLAG in GDN, with or without pALDH (maps showed no differences); core 2.7 Å and holo 3.2 Å (pALDH-incubated), core 3.2 Å and holo 3.8 Å (preprotein-free), C2 symmetry imposed.

“Tom20 (Chaetomium thermophilum) (receptor)” gave a stoichiometry N of 2.

The record behind these values is publication PMC12305020.
